Values quoted from earlier work in patent US8443799B2, “Dry powder inhalation system for transpulmonary administration” (Otsuka Pharmaceutical Co., Ltd., priority 2001, dated 2013).

Settings: disclosure in WO 95/31479

For interferon, the “deactivation during the spray drying process” value is listed as “about 25%”.
